In US8445444B2, “Compositions and methods for diagnosing, treating, and preventing prostate conditions” (Phigenix, Inc., priority 2007, dated 2013):
Entries after “also recorded” stand apart in the source; their conditions may differ.

Key:
Format in all cases: cell-based, human
DU145 [1] = test: MTT cell viability assay
Experimental: (§1) MTT Cell Viability Assay: To examine the effects of DEFB1 on cell growth, metabolic 3-[4,5-dimethylthiazol-2-yl]-2,5 diphenyl tetrazolium bromide (MTT) assays were performed. PC3, DU145 and LNCaP cells co-transfected with pVgRXR plasmid and pIND/DEFB1 construct or empty pIND vector were seeded onto a 96-well plate at 1-5×10^3 cells per well. Twenty-four hours after seeding, fresh growth medium was added containing 10 μM Ponasterone A daily to induce DEFB1 expression for 24-, 48- and 72 hours after which the MTT assay was performed according to the manufacturer's instructions (Promega). Reactions were performed three times in triplicate.
(§2) MTT Cytotoxicity Assay: DU145, PC3 and LNCaP cells (1×105) were transfected with 0.5 μg of the PAX2 siRNA pool or control siRNA pool using Codebreaker transfection reagent according to the manufacturer's protocol (Promega). Next, cell suspensions were diluted and seeded onto a 96-well plate at 1-5×10^3 cells per well and allowed to grow for 2-, 4- or 6 days. After culture, cell viability was determined by measuring the conversion of 3-[4,5-dimethylthiazol-2-yl]-2,5 diphenyl tetrazolium bromide, MTT (Promega), to a colored formazan product. Absorbance was read at 540 nm on a scanning multiwell spectrophotometer.
(§3) MTT cell viability assay: To examine the effects of hBD-1 on cell growth, metabolic 3-[4,5-dimethylthiazol-2-yl]-2,5-diphenyl tetrazolium bromide (MTT) assay was performed. DU145, LNCaP, PC3 and PC3/AR+ cells co-transfected with pvgRXR plasmid and pIND/hBD-1 construct or control pvgRXR plasmid were seeded onto a 96-well plate at 1-5×10^3 cells per well. Twenty-four hours after seeding, fresh growth medium was added containing 10 μM Pon A daily to induce hBD-1 expression for 24, 48 and 72 h after which the MTT assay was performed according to the manufacturer's instructions (Promega). Reactions were performed three times in triplicate.
(§4) MTT cytotoxicity assay: DU145, PC3 and LNCaP cell suspensions were diluted and seeded onto a 96-well plate at 1-5×10^3 cells per well. Next the cells were transfected, according to the manufacturer's protocol (Promega), with 5 pg/cell of the PAX2 siRNA pool, control siRNA pool, or the Codebreaker transfection reagent alone. All cells were allowed to grow for 2-, 4- or 6 days after treatment. Cell viability was then determined by measuring the conversion of 3-[4,5-dimethylthiazol-2-yl]-2,5 diphenyl tetrazolium bromide, MTT (Promega) to a colored formazan product. Absorbance was read at 540 nm on a scanning multi-well spectrophotometer.

PC3 = test: MTT cell viability assay
Experimental: as §1, §2, §3, §4

LNCaP = test: MTT cell viability assay; conditions: DEFB1 (hBD-1) induction 24-72 h
Experimental: as §1, §2, §3, §4

DU145 [2] = test: Pan-caspase detection (FAM-VAD-FMK, confocal); conditions: DU145, 24 h DEFB1 (hBD-1) induction
Experimental: Detection of caspase activity in the prostate cancer cell lines was performed using APO LOGIX™ Carboxyfluorescin Caspase detection kit (Cell Technology, Mountain View, Calif.). Active caspases were detected through the use of a FAM-VAD-FMK inhibitor that irreversibly binds to active caspases. Briefly, DU 145 and PC3 cells (1.5-3×10^5) containing the DEFB1 expression system were plated in 35 mm glass bottom microwell dishes (Matek, Ashland, Mass.) and treated for 24 hours with media only or with media containing PonA as previously described. Next, 10 μl of a 30× working dilution of carboxyfluorescein labeled peptide fluoromethyl ketone (FAM-VAD-FMK) was added to 300 μl of media and added to each 35 mm dish. Cells were then incubated for 1 hour at 37° C. under 5% CO2. […] The fluorescent signal was analyzed using a confocal microscope (Zeiss LSM 5 Pascal) and a 63×DIC oil lens with a Vario 2 RGB Laser Scanning Module.
Pan-Caspase Detection: Detection of caspase activity in the prostate cancer cell lines was performed using APO LOGIX™ Carboxyfluorescin Caspase detection kit (Cell Technology, Mountain View, Calif.). Active caspases were detected through the use of a FAM-VAD-FMK inhibitor that irreversibly binds to active caspases. […] The fluorescent signal was analyzed using a confocal microscope (Zeiss LSM 5 Pascal) and a 63×DIC oil lens with a Vario 2 RGB Laser Scanning Module. […]

In the case of “DEFB1: human beta defensin-1 expressed from the ecdysone inducible pIND/DEFB1 construct, induced with Ponasterone A (DHYNCVSSGGQCLYSACPIFTKIQGTCYRGKAKCCK; UniProt P60022 33-68, looked up)”, the relative cell viability (DU145 [1]; DU145, 24 h DEFB1 (hBD-1) induction, 10 μM Ponasterone A) was 72%, the relative cell viability (DU145 [1]; DU145, 48 h DEFB1 (hBD-1) induction) was 49% and the relative cell viability (DU145 [1]; DU145, 72 h DEFB1 (hBD-1) induction) was 44%. It also gave a relative cell viability (PC3; PC3, 24 h DEFB1 (hBD-1) induction) of 56%, a relative cell viability (PC3; PC3, 48 h DEFB1 (hBD-1) induction) of 37% and a relative cell viability (PC3; PC3, 72 h DEFB1 (hBD-1) induction) of 29%. For the same substance, the “effect on cell viability” value (LNCaP) was “no significant effect”, the caspase activity (DU145 [2]) was “revealed caspase activity; also recorded: green staining” and the caspase activity (DU145 [2]; listed as hBD-1) was “green staining”.
